The values that follow come from patent US20150093336A1 (VIB VZW, published 2015).

Sequences and labels used below:
T1: Recombinant mouse MMR (R&D systems) (mouse, UniProt Q61830 20-1388)
T1 construct: Antigen of the PE-ELISA and the SPR; also called mMMR; recombinant mMMR
T1 sequence: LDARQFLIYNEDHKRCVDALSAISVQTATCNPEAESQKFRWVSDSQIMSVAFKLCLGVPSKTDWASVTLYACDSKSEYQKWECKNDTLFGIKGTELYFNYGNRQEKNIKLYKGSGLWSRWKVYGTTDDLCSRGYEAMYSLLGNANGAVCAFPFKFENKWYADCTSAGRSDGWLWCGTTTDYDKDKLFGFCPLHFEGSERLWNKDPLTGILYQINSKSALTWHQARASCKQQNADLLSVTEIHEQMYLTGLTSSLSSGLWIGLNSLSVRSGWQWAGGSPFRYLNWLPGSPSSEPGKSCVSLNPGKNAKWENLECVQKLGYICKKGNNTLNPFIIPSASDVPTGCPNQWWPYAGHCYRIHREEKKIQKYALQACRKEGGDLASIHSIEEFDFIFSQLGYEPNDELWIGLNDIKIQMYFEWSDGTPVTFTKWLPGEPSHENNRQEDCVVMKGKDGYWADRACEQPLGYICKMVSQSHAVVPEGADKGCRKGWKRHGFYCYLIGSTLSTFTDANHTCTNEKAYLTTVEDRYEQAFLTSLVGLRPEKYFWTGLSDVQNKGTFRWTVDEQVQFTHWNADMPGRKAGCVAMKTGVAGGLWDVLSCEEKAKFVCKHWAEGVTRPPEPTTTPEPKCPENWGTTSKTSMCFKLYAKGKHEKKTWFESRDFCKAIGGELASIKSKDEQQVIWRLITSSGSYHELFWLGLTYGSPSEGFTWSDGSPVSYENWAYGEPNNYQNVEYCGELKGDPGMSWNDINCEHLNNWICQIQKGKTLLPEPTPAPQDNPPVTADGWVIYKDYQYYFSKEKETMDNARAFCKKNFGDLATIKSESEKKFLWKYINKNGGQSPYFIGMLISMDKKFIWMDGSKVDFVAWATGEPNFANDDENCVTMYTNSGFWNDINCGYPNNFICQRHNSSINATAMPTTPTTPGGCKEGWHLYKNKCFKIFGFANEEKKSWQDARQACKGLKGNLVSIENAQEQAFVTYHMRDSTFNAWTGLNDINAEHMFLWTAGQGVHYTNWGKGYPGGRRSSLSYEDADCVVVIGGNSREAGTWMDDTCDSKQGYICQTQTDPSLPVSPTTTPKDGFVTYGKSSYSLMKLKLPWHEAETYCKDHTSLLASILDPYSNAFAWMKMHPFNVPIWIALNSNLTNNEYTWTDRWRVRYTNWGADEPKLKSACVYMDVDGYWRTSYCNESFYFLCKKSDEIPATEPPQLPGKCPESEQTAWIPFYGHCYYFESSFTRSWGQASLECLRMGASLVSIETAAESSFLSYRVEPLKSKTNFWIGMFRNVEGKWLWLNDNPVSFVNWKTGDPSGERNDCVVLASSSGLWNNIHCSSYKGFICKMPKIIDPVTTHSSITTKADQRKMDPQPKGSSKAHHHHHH

T2: Recombinant human MMR (R&D systems) (human, UniProt P22897 19-1383)
T2 construct: Antigen of the PE-ELISA and the SPR; also called hMMR; recombinant hMMR
T2 sequence: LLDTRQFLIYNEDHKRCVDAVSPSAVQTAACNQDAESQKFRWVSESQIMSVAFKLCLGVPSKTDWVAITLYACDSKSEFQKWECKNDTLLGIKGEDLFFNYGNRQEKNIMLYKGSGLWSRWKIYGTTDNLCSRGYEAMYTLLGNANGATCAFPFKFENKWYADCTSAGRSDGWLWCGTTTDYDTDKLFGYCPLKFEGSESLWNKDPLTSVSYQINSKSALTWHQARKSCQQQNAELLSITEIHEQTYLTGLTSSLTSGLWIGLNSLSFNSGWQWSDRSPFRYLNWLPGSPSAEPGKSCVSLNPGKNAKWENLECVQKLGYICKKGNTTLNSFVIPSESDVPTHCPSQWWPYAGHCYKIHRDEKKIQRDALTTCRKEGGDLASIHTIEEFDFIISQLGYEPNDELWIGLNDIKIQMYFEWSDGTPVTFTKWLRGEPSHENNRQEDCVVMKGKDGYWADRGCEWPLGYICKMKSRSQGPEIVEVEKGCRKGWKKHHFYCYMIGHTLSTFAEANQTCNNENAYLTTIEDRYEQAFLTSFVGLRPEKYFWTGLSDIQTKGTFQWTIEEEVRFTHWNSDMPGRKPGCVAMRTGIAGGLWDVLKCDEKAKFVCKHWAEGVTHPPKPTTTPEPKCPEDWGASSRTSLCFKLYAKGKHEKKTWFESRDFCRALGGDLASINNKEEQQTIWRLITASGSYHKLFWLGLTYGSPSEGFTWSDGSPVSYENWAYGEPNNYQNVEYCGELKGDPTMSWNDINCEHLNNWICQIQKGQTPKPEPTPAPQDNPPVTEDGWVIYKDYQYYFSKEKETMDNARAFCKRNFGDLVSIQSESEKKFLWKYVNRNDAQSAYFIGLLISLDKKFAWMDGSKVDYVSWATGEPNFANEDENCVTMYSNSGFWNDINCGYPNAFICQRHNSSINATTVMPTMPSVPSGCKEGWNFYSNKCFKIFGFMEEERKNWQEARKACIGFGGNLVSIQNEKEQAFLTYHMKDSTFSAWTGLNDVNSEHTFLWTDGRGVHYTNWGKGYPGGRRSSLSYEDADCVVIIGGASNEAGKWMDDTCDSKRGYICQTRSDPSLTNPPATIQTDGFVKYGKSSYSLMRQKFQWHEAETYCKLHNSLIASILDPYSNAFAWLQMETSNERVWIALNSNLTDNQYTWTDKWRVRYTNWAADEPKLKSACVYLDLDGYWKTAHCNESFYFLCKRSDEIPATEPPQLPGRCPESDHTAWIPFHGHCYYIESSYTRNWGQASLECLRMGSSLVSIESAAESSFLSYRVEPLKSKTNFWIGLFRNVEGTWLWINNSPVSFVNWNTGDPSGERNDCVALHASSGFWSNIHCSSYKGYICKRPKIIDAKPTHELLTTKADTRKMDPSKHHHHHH

B1: NbhMMRm15.43 (VHH)
VHH: QVQLQESGGTLVQPGGSLRLSCAASGSTFSINNMGWYRQAPGKQRELVAGITGGNTHYADSVKGRFTISRDNAKNTMYLQMNGLKPEDTAVYYCNANWGAYWGQGTQVTVSS
notes: Produced from pMECS with C-terminal HA and 6xHis tag
B2: NbhmMMRm15.49 (VHH)
VHH: B1 VHH with T10G, P14A, G83S
notes: as for B1
B3: NbhMMRm5.38 (VHH)
VHH: QVQLQESGGGLVQAGGSLRLSCAASGFTDDDYDIGWFRQAPGKEREGVSCISSSDGSTYYADSVKGRFTISSDNAKNTVYLQMNSLKPEDTAVYYCAADFFRWDSGSYYVRGCRHATYDYWGQGTQVTVSS
notes: Produced from pMECS with C-terminal HA and 6xHis tag; also called NbhmMMRm5.38; Nb5.38
B4: NbhmMMRm24.31 (VHH)
VHH: QVQLQESGGGLVQPGGSLRLSCTATGFTLKNHHIGWLRQAPGKEREGVASINSSGGSTNYADSVQGRFTISRDNAKNTVFLQMNSLKSEDTAVYYCARLRRYYGLNLDPGSYDYWGQGTQVTVSS
notes: as for B1
B5: NbhMMRm3.1 (VHH)
VHH: QVQLQESGGGLVQPGGSLRLSCAASGFTLDYYAIGWFRQAPGKEREGISCISYKGGSTTYADSVKGRFTISKDNAKNTAYLQMNNLKPEDTGIYYCAAGFVCYNYDYWGPGTQVTVSS
notes: Produced from pMECS with C-terminal HA and 6xHis tag; also called NbhmMMRm3.1
B6: NbhmMMRm26.70 (VHH)
VHH: QVQLQESGGGLVQPGGSLRLSCTASGFPFSSAPMSWVRQAPGKELEWVSYIGYTGTITDYANSVKGRFTISRDNAKNRLYLQMNSLKPEDTAVYFCAQGYARLIADSDLVRGQGTQVTVSS
notes: as for B1
B7: NbhMMRm23.30 (VHH)
VHH: QVQLQESGGGLVQAGDSLSISCAASGDTFNHYSWGWFRQAPGKAREFVAAISWNGGSKYADSVKGRFAISRDIAKNTVSLQMNSLEPEDTAVYYCAADRRPYNDWWDDWSWWVYWGQGTQVTVSS
notes: as for B1
B8: NbhmMMRm22.84 (VHH)
VHH: QVQLQESGGGLVQPGGSLRLSCAASGRTFSNYVNYAMGWFRQFPGKEREFVASISWSSVTTYYADSVKGRFTISRDNAKNTVYLQMNSLKPEDTAVYYCAAHLAQYSDYAYRDPHQFGAWGQGTQVTVSS
notes: as for B1
B9: NbhmMMRm21.22 (VHH)
VHH: QVQLQESGGGLVQAGGSLRLSCAASGRTFSSAAMGWFRQAPGKEREPVALINLDDGETYYADIAKGRFTLSKDNAKNSVYLQMNSLKPEDTAVYYCAVRGRFDDNYEYWGQGTQVTVSS
notes: Produced from pMECS with C-terminal HA and 6xHis tag; also called NbhMMRm21.22
B10: NbhmMMRm6.71 (VHH)
VHH: QVQLQESGGGLVQAGGSLRLSCAASGGTFDDSVIGWFRQAPGKEREGVSCISSNDGTTHYASPVKGRFTISSDNAKNTVYLQMNSLKPEDTAVYYCAAETPSIGSPCTSASYDYWGQGTQVTVSS
notes: as for B1
B11: NbhmMMRm17.72 (VHH)
VHH: QVQLQESGGGLVQPGGSLRLSCAASGSIVSINAMGWYRQAPGKQRELVALVTGSGRTNLADSVKGRFTISRDNAKNTVYLQMNSLKPEDTAVYYCNVLVIGPLEGYDYWGQGTQVTVSS
notes: as for B1

Changes are numbered by the printed parent chain.

The target in the first test is T1, Recombinant mouse MMR (R&D systems). The test can be described thus: SPR, BIAcore T100; mouse MMR on CM5 chip, sdAb as analyte. Here is the method: (§1) Affinity analysis was performed using a BIAcore™ T100 (GE Healthcare) with HEPES-buffered saline running buffer (10 mM HEPES with 0.15 M NaCl, 3.4 mM EDTA and 0.005% surfactant P20 at pH 7.4). MRR was immobilized on a CM5 chip in acetate buffer 50 mM (pH 5.0), resulting in 2100 RU MMR coated on the chip. A second channel on the same chip was activated/deactivated in a similar way and served as a negative control. The MMR sdAbs were used as analytes in eleven different concentrations, ranging from 1 to 2000 nM, at a flow rate of […]. Glycine-HCl 50 mM (pH 2.0) was used for elution. The kinetic and equilibrium parameters (kd, ka and KD) values were calculated from the combined sensogram of all concentrations using BIAcore™ T100 evaluation software 2.02 (GE Healthcare).
(§2) The binding characteristics and affinity of selected Nbs towards the recombinant hMMR and recombinant mMMR antigen was examined in further detail using surface plasmon resonance. A combined sensogram was recorded for each Nb (example for NbhmMMRm3.49 in FIG. 5) and the kinetic and equilibrium parameters (kd, ka and KD) values were calculated (Table 4 and Table 5). Most but not all results on binding to mouse or human rMMR obtained via this SPR analysis are in agreement with the results obtained by PE-ELISA.
As to B1, the Kd was 44 nM, the koff is 0.0013 s⁻¹ and the kon is 29000 M⁻¹ s⁻¹.

Regarding B2, the Kd stood at 44 nM, the koff worked out at 0.0013 s⁻¹ and the kon stood at 29000 M⁻¹ s⁻¹.

Take B3: the Kd amounted to 25 nM, the koff stood at 0.0033 s⁻¹ and the kon turned out to be 130000 M⁻¹ s⁻¹.

In the case of B4, the Kd came to 74 nM, the koff was 0.0021 s⁻¹ and the kon worked out at 28000 M⁻¹ s⁻¹.

As for B5, the Kd came out at 19 nM, the koff stood at 0.004 s⁻¹ and the kon is 210000 M⁻¹ s⁻¹.

Consider B6, for which the Kd worked out at 1.9 nM, the koff is 0.0013 s⁻¹ and the kon came to 690000 M⁻¹ s⁻¹.

For B7, the binding result is “no binding (tested: analyte 1 to 2000 nM)”.

For B8, the equilibrium dissociation constant (Kd) amounted to 130 nM, the koff amounted to 0.004 s⁻¹ and the kon amounted to 30000 M⁻¹ s⁻¹.

For a further test, the target named is T2, Recombinant human MMR (R&D systems). Description: SPR, BIAcore T100; human MMR on CM5 chip, sdAb as analyte. Here is the method:
as §1, §2
(In general: In SPR one partner is held on a chip, and binding of the other changes the refractive index at the surface.)
Turning to B1, the Kd was found to be 270 nM, the off-rate constant (koff) was determined as 0.0059 s⁻¹ and the kon was determined as 22000 M⁻¹ s⁻¹.

In the case of B2, the Kd was determined as 290 nM, the koff was determined as 0.0061 s⁻¹ and the on-rate (kon) was 21000 M⁻¹ s⁻¹.

For the molecule B9, the Kd was 3.6 nM, the koff amounted to 0.0012 s⁻¹ and the association rate constant (kon) was found to be 340000 M⁻¹ s⁻¹.

Regarding B3, the Kd was found to be 3.3 nM, the koff came out at 0.00066 s⁻¹ and the kon was 200000 M⁻¹ s⁻¹.

Regarding B4, the Kd was 2.7 nM, the koff is 0.00069 s⁻¹ and the kon was 260000 M⁻¹ s⁻¹.

B5: the dissociation constant (Kd) came to 3.4 nM, the koff worked out at 0.00074 s⁻¹ and the association rate constant (kon) was 220000 M⁻¹ s⁻¹.

In the case of B10, the Kd was 5.6 nM, the koff is 0.0011 s⁻¹ and the kon was 190000 M⁻¹ s⁻¹.

On to B6, for which the Kd turned out to be 13 nM, the koff was found to be 0.0073 s⁻¹ and the kon is 580000 M⁻¹ s⁻¹.

As to B11, the Kd is 19 nM, the koff turned out to be 0.0012 s⁻¹ and the on-rate (kon) is 62000 M⁻¹ s⁻¹.

Take B8: the Kd amounted to 38 nM, the koff is 0.0019 s⁻¹ and the kon is 49000 M⁻¹ s⁻¹.

The Kd is the free concentration of one partner at which half of the binding sites on the other are occupied at equilibrium, for simple one-to-one binding. One may read the koff as the rate constant with which the complex falls apart. Usually kon stands for a measure of how fast the partners come together.
